B1: RAB11B (parent)
chain: AVPTDEARAFAEKNNLSFIETSAL
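Also: lentivirally expressed fusions sorted by FACS into six bins by GFP to DsRed ratio, PSI derived from sequencing read proportions per bin multiplied by bin number.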

Variants of: B1
Test: protein stability index of a GFP-peptide fusion (GPS, HEK-293T) (PSI 1-6); higher = more stable
Details: c terminus: a fixed tail appended
In the case of AVPTDEARAFAEKNNLSFAETSAL [I19A], the protein stability index is reported as 4.6. AVPTDEARAFAEKNNLSFGETSAL [I19G] gave a protein stability index of 4.64. AVPTDEARAFAEKNNLSFVETSAL [I19V] gave a protein stability index of 3.26. In the case of AVPTDEARAFAEKNNLSFSETSAL [I19S], the protein stability index is reported as 4.56. Variant AVPTDEARAFAEKNNLSFYETSAL [I19Y] has a protein stability index of 3.73. With AVPTDEARAFAEKNNLSFPETSAL [I19P] the protein stability index was 5.04. For AVPTDEARAFAEKNNLSFHETSAL [I19H], the protein stability index was 3.49. AVPTDEARAFAEKNNLSFMETSAL [I19M] showed a protein stability index of 4.21. With AVPTHEARAFAEKNNLSFIETSAL [D5H] the protein stability index was 2.61. AVPTYEARAFAEKNNLSFIETSAL [D5Y] showed a protein stability index of 2.08. Work on AVPTVEARAFAEKNNLSFIETSAL [D5V] yielded a protein stability index of 1.99. In the case of AVPTEEARAFAEKNNLSFIETSAL [D5E], the protein stability index is reported as 2.82. Variant AVPTFEARAFAEKNNLSFIETSAL [D5F] has a protein stability index of 2.17. AVPTTEARAFAEKNNLSFIETSAL [D5T] showed a protein stability index of 2.13. With AVPTNEARAFAEKNNLSFIETSAL [D5N] the protein stability index was 1.92. AVQTDEARAFAEKNNLSFIETSAL [P3Q] gave a protein stability index of 3.16. In the case of AVATDEARAFAEKNNLSFIETSAL [P3A], the protein stability index is reported as 2.93. AVSTDEARAFAEKNNLSFIETSAL [P3S] showed a protein stability index of 2.57. AVDTDEARAFAEKNNLSFIETSAL [P3D] showed a protein stability index of 3.28. AVRTDEARAFAEKNNLSFIETSAL [P3R] gave a protein stability index of 2.1. For AVHTDEARAFAEKNNLSFIETSAL [P3H], the protein stability index was 2.33. For AVPTDEARAFAEKNNLSNIETSAL [F18N], the protein stability index was 4.95. AVPTDEARAFAEKNNLSWIETSAL [F18W] showed a protein stability index of 3.67. AVPTDEARAFAEKNNLSCIETSAL [F18C] showed a protein stability index of 4.48. AVPTDEARAFAEKNNLSIIETSAL [F18I] showed a protein stability index of 4.23. With AVPTDEARAFAEKNNLSVIETSAL [F18V] the protein stability index was 4.71. AVPTDEARAFAEKNNLSEIETSAL [F18E] gave a protein stability index of 5.3. AVPTDEARAFAEKNNLSRIETSAL [F18R] showed a protein stability index of 4.29. Work on AVPTDEARAFAEKNNLSYIETSAL [F18Y] yielded a protein stability index of 2.97. With AVPTDEARAFAEKNNLSSIETSAL [F18S] the protein stability index was 4.89. Variant AVPTDEARAFAEKNNLSFIITSAL [E20I] has a protein stability index of 1.85. In the case of AVPTDEARAFAEKNNLSFIGTSAL [E20G], the protein stability index is reported as 2.76. Work on AVPTDEARAFAEKNNLSFIHTSAL [E20H] yielded a protein stability index of 2.36. For AVPTDEARAFAEKNNLSFIFTSAL [E20F], the protein stability index was 1.62. In the case of AVPTDEARAFAEKNNLSFIVTSAL [E20V], the protein stability index is reported as 1.95. Variant AVPTDEARAFAEKNNLSFISTSAL [E20S] has a protein stability index of 3.18. AVPTDEARAPAEKNNLSFIETSAL [F10P] gave a protein stability index of 2.73. Variant AVPTDEARAQAEKNNLSFIETSAL [F10Q] has a protein stability index of 3.45. AVPTDEARAEAEKNNLSFIETSAL [F10E] showed a protein stability index of 4.11. In the case of AVPTDEARACAEKNNLSFIETSAL [F10C], the protein stability index is reported as 3.1. Variant AVPTDEARARAEKNNLSFIETSAL [F10R] has a protein stability index of 2.74. AVPTDEARAGAEKNNLSFIETSAL [F10G] showed a protein stability index of 3.12. Variant AVPTDEARAYAEKNNLSFIETSAL [F10Y] has a protein stability index of 3.2. Variant AVPTDEAYAFAEKNNLSFIETSAL [R8Y] has a protein stability index of 3.12. With AVPTDEALAFAEKNNLSFIETSAL [R8L] the protein stability index was 2.33. For AVPTDEACAFAEKNNLSFIETSAL [R8C], the protein stability index was 2.78. Variant AVPTDEADAFAEKNNLSFIETSAL [R8D] has a protein stability index of 3.37. AVPTDEAIAFAEKNNLSFIETSAL [R8I] gave a protein stability index of 2.9. For AVPTDEAAAFAEKNNLSFIETSAL [R8A], the protein stability index was 2.77. For AVPTDEAQAFAEKNNLSFIETSAL [R8Q], the protein stability index was 2.45. For AVPTDEAVAFAEKNNLSFIETSAL [R8V], the protein stability index was 3.04. With AVPTDEAGAFAEKNNLSFIETSAL [R8G] the protein stability index was 3.22. Work on AVPTDEARAFANKNNLSFIETSAL [E12N] yielded a protein stability index of 2.02. AVPTDEARAFAFKNNLSFIETSAL [E12F] gave a protein stability index of 1.74. With AVPTDEARAFAVKNNLSFIETSAL [E12V] the protein stability index was 2.47. AVPTDEARAFADKNNLSFIETSAL [E12D] gave a protein stability index of 2.81. Variant AVPTDEARAFAHKNNLSFIETSAL [E12H] has a protein stability index of 2.65. With AVPTDEARAFAYKNNLSFIETSAL [E12Y] the protein stability index was 1.93. Work on AVPTDEARAFAKKNNLSFIETSAL [E12K] yielded a protein stability index of 1.93. AVPTDEARAFAEKWNLSFIETSAL [N14W] showed a protein stability index of 2.83. Variant AVPTDEARAFAEKVNLSFIETSAL [N14V] has a protein stability index of 2.18. AVPTDEARAFAEKGNLSFIETSAL [N14G] gave a protein stability index of 2.73. Work on AVPTDEARAFAEKMNLSFIETSAL [N14M] yielded a protein stability index of 2.25. Variant AVPTDEARAFAEKYNLSFIETSAL [N14Y] has a protein stability index of 2.53. AVPTDEARAFAEKQNLSFIETSAL [N14Q] gave a protein stability index of 3.47. For AVPTDEARAFAEKHNLSFIETSAL [N14H], the protein stability index was 2.26. Work on AVPTDEARAFAEKINLSFIETSAL [N14I] yielded a protein stability index of 2.23. Variant AVPTDEARAFAEKPNLSFIETSAL [N14P] has a protein stability index of 2.53. For AVPTDEARAFAEKLNLSFIETSAL [N14L], the protein stability index was 2.23. Work on AVPTDEARAFAEKKNLSFIETSAL [N14K] yielded a protein stability index of 3.38. With AVPTDEARAFAEKTNLSFIETSAL [N14T] the protein stability index was 2.88. AVPTDEARAFAEKANLSFIETSAL [N14A] gave a protein stability index of 2.48. AVPTDEARAFAEKSNLSFIETSAL [N14S] gave a protein stability index of 2.84. With AVPTDEARAFAEENNLSFIETSAL [K13E] the protein stability index was 3.9. In the case of AVPTDEARAFAEINNLSFIETSAL [K13I], the protein stability index is reported as 2.09. AVPTDEARAFAEGNNLSFIETSAL [K13G] gave a protein stability index of 3.17. Work on AVPTDEARAFAELNNLSFIETSAL [K13L] yielded a protein stability index of 2.14. With AVPTDEARAFAEHNNLSFIETSAL [K13H] the protein stability index was 2.24. In the case of AVPTDEARAFAEYNNLSFIETSAL [K13Y], the protein stability index is reported as 1.88. AVPTDEARAFAEANNLSFIETSAL [K13A] showed a protein stability index of 3.08. In the case of AVPTDEARAFAERNNLSFIETSAL [K13R], the protein stability index is reported as 2.5. In the case of AVPTDEARAFAENNNLSFIETSAL [K13N], the protein stability index is reported as 1.59. Work on AKPTDEARAFAEKNNLSFIETSAL [V2K] yielded a protein stability index of 2.52. ALPTDEARAFAEKNNLSFIETSAL [V2L] gave a protein stability index of 3.28. In the case of ATPTDEARAFAEKNNLSFIETSAL [V2T], the protein stability index is reported as 2.62. Work on AFPTDEARAFAEKNNLSFIETSAL [V2F] yielded a protein stability index of 2.64. In the case of AMPTDEARAFAEKNNLSFIETSAL [V2M], the protein stability index is reported as 3.41. ADPTDEARAFAEKNNLSFIETSAL [V2D] showed a protein stability index of 3.41. In the case of AEPTDEARAFAEKNNLSFIETSAL [V2E], the protein stability index is reported as 3.96. For AWPTDEARAFAEKNNLSFIETSAL [V2W], the protein stability index was 2.52. With ARPTDEARAFAEKNNLSFIETSAL [V2R] the protein stability index was 2.35. For AGPTDEARAFAEKNNLSFIETSAL [V2G], the protein stability index was 2.74. Work on ASPTDEARAFAEKNNLSFIETSAL [V2S] yielded a protein stability index of 3.09. Work on AVPTDSARAFAEKNNLSFIETSAL [E6S] yielded a protein stability index of 2.2.

Source: the supplement of paper PMC10567573
